Consider one substance from PMC8748450.

The Kd is the free concentration of one partner at which half of the binding sites on the other are occupied at equilibrium, for simple one-to-one binding. A low value points to tighter binding.

The target of the experiment is apo-LgnD-C1-T1-C2 tridomain (truncated LgnD). As to the kind of experiment: ITC; LgnA (125 µM) titrated into LgnD or truncated LgnD (25 µM), also into LgnB (concentrations for LgnB not told); thirteen 3 µL injections, 25 °C; one set binding model; MicroCal PEAQ-ITC.

As for “LgnA, type II thioesterase (TEII) orthologue (enzyme)”, the Kd came out at 1700 nM.
